Assay results published in paper PMC8925968.

Tests used:
PTBP1 (GST-SBP-PTBP1) [1] = biological target: T1, PTBP1 (GST-SBP-PTBP1) (UniProt P26599-1 1-531); test: fluorescence polarization
PTBP1 (GST-SBP-PTBP1) [2] = biological target: T1, PTBP1 (GST-SBP-PTBP1); test: bead pull-down with RT-qPCR

Binder	Kd (PTBP1 (GST-SBP-PTBP1) [1])	binding result (PTBP1 (GST-SBP-PTBP1) [2])
CUCUCUGAACACUCUCU (ssRNA) [Capzb intron oligo]	~3 nM	–
AUCUCUUGAUGCUAUCC (ssRNA) [Capzb exon oligo]	~6 nM	–
CUCUCUCUCUCUCUCUC (ssRNA) [Fnbp1 intron oligo]	~2 nM	–
CUUUCUCUCAAGCU (ssRNA) [Fnbp1 exon oligo]	~8 nM	–
Capzb intron WT transcript with adapters (ssRNA) RNA: AGUUGUACAGUCCGACGAUGCGGUGGCCUUCUCCUGUCUCUGCCUUUGCCCACGGCUGCCAGGUUCUUGUUCGGCAUUGCUGUUGCUCUCUUGCUGUGGCUUCACCCUCUCUGAACACUCUCUGUAGUGCAGUCGUCGAGUGUCAACG	–	binds
